Laboratory results: article PMC12786276

Target: CD47 (endogenously expressed in MDA-MB-231 cells) (human (endogenous in MDA-MB-231)) (UniProt Q08722)
Chain of UniProt Q08722 (Q08722 19-323): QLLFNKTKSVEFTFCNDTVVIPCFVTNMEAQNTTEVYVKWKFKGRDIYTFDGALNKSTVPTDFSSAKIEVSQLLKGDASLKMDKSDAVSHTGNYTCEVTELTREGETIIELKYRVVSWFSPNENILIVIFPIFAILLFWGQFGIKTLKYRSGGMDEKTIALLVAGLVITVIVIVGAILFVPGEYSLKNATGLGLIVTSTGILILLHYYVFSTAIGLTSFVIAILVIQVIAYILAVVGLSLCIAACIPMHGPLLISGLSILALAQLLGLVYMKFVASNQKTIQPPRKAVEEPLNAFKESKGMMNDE

Row | phagocytosis of MDA-MB-231 cells by macrophages (flow cytometry) after PSFL-NK13 (4 µM, 48 h) [fold] | Substance
1 | 3 | integrin αv subunit (endogenously expressed in MDA-MB-231 cells) (natural protein)
2 | 3 | integrin β3 subunit (endogenously expressed in MDA-MB-231 cells) (from UniProt P05106 27-788) (natural protein)
